Measurements: publication PMC4882453, “Monoacylglycerol Lipases Act as Evolutionarily Conserved Regulators of Non-oxidative Ethanol Metabolism” (The Journal of Biological Chemistry, 2016)

Substrate: CCCCCCCCCCCCCCCC(=O)OCC
Assay: release of fatty acid, substrate saturation, nonlinear regression
Type: biochemical, Saccharomyces cerevisiae
Settings: CHAPS-emulsified substrate, Bistris propane, pH 7, 1 mM EDTA, 37 °C, 30 min

B1: His6-tagged Yju3p (Saccharomyces cerevisiae S288C) (protein)
chain: MAPYPYKVQTTVPELQYENFDGAKFGYMFWPVQNGTNEVRGRVLLIHGFGEYTKIQFRLMDHLSLNGYESFTFDQRGAGVTSPGRSKGVTDEYHVFNDLEHFVEKNLSECKAKGIPLFMWGHSMGGGICLNYACQGKHKNEISGYIGSGPLIILHPHTMYNKPTQIIAPLLAKFLPRVRIDTGLDLKGITSDKAYRAFLGSDPMSVPLYGSFRQIHDFMQRGAKLYKNENNYIQKNFAKDKPVIIMHGQDDTINDPKGSEKFIQDCPSADKELKLYPGARHSIFSLETDKVFNTVFNDMKQWLDKHTTTEAKP
notes: expression construct described previously (YJU3 for the GFP fusions was cloned from BY4742 genomic DNA)
- Km: 780 µM
